In patent US20210238275A1 (published 2021):

B1: N026 (antibody)
heavy: not shown
light: QSALTQPASVSGSPGQSITISCTGTGSDVGSYNLVSWYQQHPGKAPKLMIYGDSERPSGVSNRFSGSKSGNTASLTISGLQAEDEADYYCSSYAGSGIYVFGTGTKVTVLGQPKAAPSVTLFPPSSEELQANKATLVCLISDFYPGAVTVAWKADSSPVKAGVETTTPSKQSNNKYAASSYLSLTPEQWKSHKSYSCQVTHEGSTVEKTVAPTECS
B2: N023 (antibody)
heavy: not shown
light: B1 light
B3: N022 (antibody)
heavy: not shown
light: B1 light
B4: N027 (antibody)
heavy: not shown
light: B1 light
B5: N024 (antibody)
heavy: not shown
light: B1 light

target: cell surface, glycophosphatidylinositol (GPI)-linked human FcRn on HEK 293 cells (human, UniProt P55899 24-297, C-terminal engineered GPI linkage); assay: IgG competition on 293 cell surface; pH 6.0

Row | Binder | EC50 [nM]
1 | B1 | 3.24
2 | B2 | 2.48
3 | B3 | 2.93
4 | B4 | 3.25
5 | B5 | 2.48
